Biological target: T1, recombinant FGF12 fused with the His-tag (UniProt P61328 1-243)
T1 chain: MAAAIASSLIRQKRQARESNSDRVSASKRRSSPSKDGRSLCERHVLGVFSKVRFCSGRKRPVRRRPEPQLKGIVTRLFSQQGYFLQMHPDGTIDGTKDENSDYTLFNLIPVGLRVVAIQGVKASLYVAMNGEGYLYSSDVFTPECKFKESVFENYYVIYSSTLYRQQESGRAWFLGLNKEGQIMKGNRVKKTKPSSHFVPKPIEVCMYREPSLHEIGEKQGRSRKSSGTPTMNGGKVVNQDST
Assay: SPR

B1: recombinant galectin-8 (natural protein)
chain: MMLSLNNLQNIIYNPVIPFVGTIPDQLDPGTLIVIRGHVPSDADRFQVDLQNGSSMKPRADVAFHFNPRFKRAGCIVCNTLINEKWGREEITYDTPFKREKSFEIVIMVLKDKFQVAVNGKHTLLYGHRIGPEKIDTLGIYGKVNIHSIGFSFSSDLQSTQASSLELTEISRENVPKSGTPQLRLPFAARLNTPMGPGRTVVVKGEVNANAKSFNVDLLAGKSKDIALHLNPRLNIKAFVRNSFLQESWGEEERNITSFPFSPGMYFEMIIYCDVREFKVAVNGVHSLEYKHRFKELSSIDTLEINGDIHLLEVRSW
- Kd: 581 nM
